This note sets out measurements from patent publication US20240343770A1 (SUNSHINE LAKE PHARMA, published 2024).

For one data set, the target named is human GFRAL (human) (UniProt Q6UXV0). The experiment in a line: cell-based or functional assay.
Data set [1] deals with the molecule itself. The data set can be described thus: SEC of the purified Fc (self-association, aggregate state).
Data set [2] deals with the molecule itself. The data set can be described thus: SEC of the purified Fc (self-association).

Residue numbers refer to the chain shown, from its start. In names and notes the source's numbering stands.

human GFRAL (human), sequence (Q6UXV0 19-394): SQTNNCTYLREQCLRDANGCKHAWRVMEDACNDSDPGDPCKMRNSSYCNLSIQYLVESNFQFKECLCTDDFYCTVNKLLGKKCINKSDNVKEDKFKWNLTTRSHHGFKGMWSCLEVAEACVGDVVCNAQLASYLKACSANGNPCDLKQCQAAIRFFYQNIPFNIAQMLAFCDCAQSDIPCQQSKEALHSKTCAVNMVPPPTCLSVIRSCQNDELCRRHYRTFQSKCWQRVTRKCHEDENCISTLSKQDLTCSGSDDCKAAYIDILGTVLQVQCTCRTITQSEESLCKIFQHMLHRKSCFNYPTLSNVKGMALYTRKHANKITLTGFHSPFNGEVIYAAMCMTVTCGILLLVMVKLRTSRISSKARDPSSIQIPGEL

Take “native GDF15 (from UniProt Q99988 197-308) (ligand)”: the Relative activity ratio (native GDF15 EC50 : construct EC50), phospho-ERK1/2 HTRF in HEK293T cells expressing human GFRAL and RET with human GFRAL (human) is 1.

B1: IgG4 Fc (AA, K439E) (other)
chain: EAAGGPSVFLFPPKPKDTLMISRTPEVTCVVVDVSQEDPEVQFNWYVDGVEVHNAKTKPREEQFNSTYRVVSVLTVLHQDWLNGKEYKCKVSNKGLPSSIEKTISKAKGQPREPQVYTLPPSQEEMTKNQVSLTCLVKGFYPSDIAVEWESNGQPENNYKTTPPVLDSDGSFFLYSRLTVDKSRWQEGNVFSCSVMHEALHNHYTQESLSLSLG
notes: One Fc polypeptide
As to B1, the binding result in data set [1] is given as “binds”.

B2: IgG4 Fc (AA, F405Q/Y407E) (other)
chain: B1 chain with F173Q, Y175E, E207K
notes: Control Fc; found as a monomer by SEC; also called monomeric Fc molecule
Turning to B2, the binding result in data set [2] is on record as “no binding”.

B3: IgG4 Fc (AA, K439D) (other)
chain: B1 chain with E207D
notes: One Fc polypeptide
For B3, the binding result in data set [1] is “binds”.
